Results taken from the nanobody polyreactivity screen of Harvey et al. (2022).

Experiment: yeast display, Sf9 membrane polyspecificity reagent, FACS + sequencing; frameworks hold sequencing errors
Procedure, shortened: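 Polyreactivity labels are assigned by the sorting gate from which each nanobody was recovered. The gates were low and high (top ~1%), set on anti-HA fluorescence for expression and streptavidin fluorescence for reagent binding. Before sorting, galactose-induced (36–48 hours) yeast display cells were stained for 1 hour at 4 °C with 10% biotinylated, detergent-solubilized Sf9 membrane reagent.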

## QVQLVESVGGLVQAGGSLRLSCAASGIIFVYYVMGWYRQAPGKERELVASIDGSGGSTNYADSVKGRFTISRDNAKNTVYLQMNSLKPEDTAVYYCNADNILYWSTLDYWGQGTQVTVSS
  polyreactivity (PSR sort gate): low polyreactivity

## QVQLVESGGGLVQAGGSLRLSCAASGRIFGSYVMGWYRQAPGKERELVAAISYSGGRTYYADSVKGRFTISRDNAKNTVYLQMNSLKPEDTAVYYCAKESSGSRYQYYYWGQGTQVTVSS
  polyreactivity (PSR sort gate): high polyreactivity

## QVQLVESCGGLVQAGGSLRLSCAASGRIFQTYAMGWYRQAPGKERELVASISWSGGSTYYADSVKGRFTILRDNAKNTVYLQMNSLKPEDTAVYYCAAVYYSTDYYFWYDYWGQGTQVTVSS
  polyreactivity (PSR sort gate): low polyreactivity

## QVQLVESGGGLVQAGGSLRLSCAASGLTFSWYAMGWYRPAPGKERELVAAISSGGSTYYADSVKGRFTISRDNAKNTVYLQMNSLKPEDTAVYYCNAESYYYGFFWSGFRYGYWGQGTQVTVSS
  polyreactivity (PSR sort gate): high polyreactivity

## QVQLVESGGGLVQAGGSLRLSCAASGRIFDLNAMGWYRQAPGKERELVAAITWSGDSTYYADSVKGRFTISRDNAKNTVYLQMNSLKPEDTAVYYCAAASRTSYSWVDYEFDYWGQGTQVTVSS
  polyreactivity (PSR sort gate): low polyreactivity

## QVQLVESGGGLVQAGGSLRLSCAASGFTFYKYTMGWYRQAPGKERELVAAISARGGSTYYADSVKGRFTISRDNAKNTVYLQMNSLKPEDTAVYYCAADYWRTYGLGYDYWGQGTQVTVSS
  polyreactivity (PSR sort gate): high polyreactivity

## QEQLQESGGGQVQAGGSLLLSCAASGNIIRYYYMGWYRQAPGKERELVAAITYGTSTNYADSVKGRFTISRDNAKNTVYLQMNSLKPEDTAVYYFAVDVNYGDPLDNWGQGTQVTVSC
  polyreactivity (PSR sort gate): high polyreactivity

## QVQLVESGGGLVQAGGSLRLICAASGSIFKIYAMGWYRQAPGKERELVARITRRGGRTNYADSVKGRFTISRDNAKNTVYLQINSLKPEDTAVYYCAATVYPSVYGENHYGYWGQGTQVTVSS
  polyreactivity (PSR sort gate): high polyreactivity

## QVQLLESGGGLVQAGVSLRLSCAASGRIFPYNAMGRYRQAAGKVREFVAAIYYSGGRTYYADSVKGRFTITRDNAKNTVYIQMNSLKPEDTAVYFCDISRYDYTKTEGGYWGQGTQVTVSS
  polyreactivity (PSR sort gate): low polyreactivity

## QVQLVESGGGLVQAGGSLSLSCAASGIIFYDYAMGWYRQAPGKERELVAAITSGGSTNYADSVKGRFTISRDNAKNTVYLLMNRLKPEVTAVYYCAATYWSWISLRFYWGLGTQVTVSS
  polyreactivity (PSR sort gate): low polyreactivity

## QVQLVESGGGVLQAGGSLRLSCAASGSTFAFYAMVRYREAPGKVRELVAAISRSGGRTYYADSVKGRFTISRDNAKNTVYLQMNSLIPEDTAVYYCAAPSGITTGPHREYDYWGLGTQVTVSS
  polyreactivity (PSR sort gate): high polyreactivity

## QVQLVESGGGLVQAGGSLRLSCAASGFTIYKYAMGWYRQPPGKERELVAAITGRGGSTNYADSVKGRFTISRDTAQNTVYLQMNILKPEDTAFYYCAARTPSYEMDYWGQGTQVTVSS
  polyreactivity (PSR sort gate): high polyreactivity

## QVQLVESGGGLVQAGGSLRLSCAASGSTFHVNAMGWYRQAPGKEREFVAAISWRTGSTYYADSVKGRFTISRDNAKNTVYLQMNSLKPEDTAVYYCAAKRSYSNYDYWGQGTQVTVSS
  polyreactivity (PSR sort gate): high polyreactivity

## QVQLVESGGGLVQAGGSLRLSCAASGNTFAGYAMGWYRQAPGKEMEWVAAISTRGGITYYADSVKGRFTISRDNAKNTVYLQMNCLKPEDTAVYYCAAEFYYPWTYCSCDGRRVYYWGQGTQVTVSS
  polyreactivity (PSR sort gate): high polyreactivity

## QGQHVETGGGLVQAGGRLRLSCAASGSTLRDYVMGWSRQAPGKERELVAAITSRVDDTYYADSVKGRFTISRDNAKNTVYLQMNSLKPEDTAVYYCAADSSVTLRIGGYYWFYAFDYWGQGTQVTVSS
  polyreactivity (PSR sort gate): low polyreactivity

## QVQLVESGGGLVQAGGSLRLSCAASGSIFDRNAMGRYRQAPGKERELVAAITSGGSTYYADSVKGRFTISRDNAKNTVYFQMNSLKPEDTAVYYCNADTDPPVPLYYWGQGTQVNVSS
  polyreactivity (PSR sort gate): low polyreactivity

## QVQLVESAGGLVQAGGSLRLSFAASGRISGRYAMRWYRQAPGKEREVVAAITSRGGRTYYADSVKGRFTISRDNAKNTVYLQMNSLKPEDTAVYYCAKDAGSRTVREFGYWGQGTHVTVSS
  polyreactivity (PSR sort gate): high polyreactivity

## QVQLVDSGGGLVQAGGSLSLSCADSGFIFRAYEMGSYRQAPGNERALVAAISGSGGRTYYSDSVNGRFTISRDNAKNTVYLQKNSLKPEDTAVYYGKADFHYSIPGHAFATVYYWGQGTQVTVSS
  polyreactivity (PSR sort gate): low polyreactivity

## QVQLVESGGGLVQAGGSLRLSCAAYGRIFRGYAMGRYRQAPGKEREFVAAITKNGGSTYYADSVKGRFTISRDNAKNTVYLQMNSLKPEDTAVYYCAVRALDPYTGKSDYWGQGTQVTVSS
  polyreactivity (PSR sort gate): low polyreactivity

## QVQLVESGGGLVQAGGSLRLSCAASGSTFIDYGMGWYRQAPGKERELVAAIDLDSGDTYYADSVKGRFTISRDNAKNTVYLQMNSLKPEDTAVYYCAAQYWYRYNYWGQGTQVTVSS
  polyreactivity (PSR sort gate): low polyreactivity

## QVQLVESGGGLVQAGGSLRLSCAASGITLYYYVMGWYRQAPGKERELVAAISWNSGRTYYADSVKGRFTISRDNAKNTVYLQMNSLKPEDTAVYYCAARPPVRLTYRYSYDYWGQGTQVTVSS
  polyreactivity (PSR sort gate): high polyreactivity

## QVQLVESGGGLVQAGGSLRLSCAASGRIFSHKAMGWYRQAPGKERELVAGISSGGGTTYADSVKGRFTISRDNAKNTVYLQMNSLKPEDTAVYYCNKQDQPVGRSGYPYGYDYWGQGTQVTVSS
  polyreactivity (PSR sort gate): low polyreactivity

## QVQLVESGGGLVQAGGSLRLSCAASGFIFAWNDMGWYRQAPGKERELVAAISSGTSTNYADSVKGRFTISRDNAKNTVYLQMNSLKPEDTGVYYCNVDSPLQPYRYYYWGQGSQVTVSS
  polyreactivity (PSR sort gate): low polyreactivity

## QVQLVESGGGLVQAGGSLRLSCAASGSNFANYAMGWYRQAPGKEREFVAGISGSGGSTFYADSVKGRFTISRDNAKNTVYLQMNSLKPEDTAVYYCAVVQRSKRTYPWYDYWGQGTQVTVSS
  polyreactivity (PSR sort gate): low polyreactivity

## QVQLVESGGGLVQAGGSLRLSCAASGLTFNVYAMGWYRQAPGKERELVAAITRSTGRTYYADSVKGRFTISRDNAKNTVYLQMNSLIPEDTAVYYCNRVSRQYYYQRGFEYDYWGQGTQVTVSS
  polyreactivity (PSR sort gate): high polyreactivity

## QVQLVESGGGLVQAGGSLRLSCAASGLTFERYAMGWYRQAPGKERELVAAISIRGGSTYYADSVKGRFTISRDNAKNTVYLQMNSLKPEDTAVYYCSADGRGREYDYWGQGTQVTVSS
  polyreactivity (PSR sort gate): low polyreactivity

## QVQLVESGGGLVQAGGSLRLSCAASGSTFKGYAMGWYRQAPGKERELVAAITWSSGRTYYADSVKGRFTISRDNAKNTVYLQMNSLKPEDTAVYYCAAKSRRTRRSYYWGQGTQVTVSS
  polyreactivity (PSR sort gate): high polyreactivity

## QVQHAESGGGLDQAGGSLRLSCAASGGNFQANAMGWSRQATGKEREFVATITRGGGSTYYADSVKGRFTISRDNAKNTVYLQMNSLKPEDTAVYYCNSKPSYYQRYNYWGQGTQVTVSS
  polyreactivity (PSR sort gate): high polyreactivity

## QVQLVESGGGLVQAGGSLRLSCAAYGYIFIRNAMGCYRQAPGKERELVAAISWTGGNTYYADSVKGRFTISRDNAKNTVYLQMNSLIPEDTAVYYCAAQRSVFKSFRTTYVSYDYWGQGTQVTVSS
  polyreactivity (PSR sort gate): high polyreactivity

## QVQLVESGGGLVQAGGSLRLSCAASGITFYGNAMGWYRQAPGKERELVAGIRSSGGDTYYADSVKGRFTISRDNAKNTVYLQMNSLKPEDTAVYYCAADFDWFIWGYDYWGQGTQVTVSS
  polyreactivity (PSR sort gate): low polyreactivity

## QVQLVESGGGLVQAGGSLRLSCAASGFIFVDYDMVWYRQAPGKERELVAAISARGGSTNYADSVKGRFTISRDNAKNTVYLQMNSLKPEDTAVYYCAADTPVWSGYWYDYWGQGTQVTVSS
  polyreactivity (PSR sort gate): low polyreactivity
